Tests used:
mouse CLDN18.2 (mouse) = mouse CLDN18.2 (mouse) (UniProt P56857); test: FACS titration of AF647-labelled IgG on HEK293T mouse CLDN18.2 cells
[1] = target: Claudin-18.1 (CLDN18.1) (human) (UniProt P56856); test: FACS titration of AF647-labelled IgG on HEK293T CLDN18.1 cells
Chain of Claudin-18.1 (CLDN18.1) (human) (P56856 whole entry): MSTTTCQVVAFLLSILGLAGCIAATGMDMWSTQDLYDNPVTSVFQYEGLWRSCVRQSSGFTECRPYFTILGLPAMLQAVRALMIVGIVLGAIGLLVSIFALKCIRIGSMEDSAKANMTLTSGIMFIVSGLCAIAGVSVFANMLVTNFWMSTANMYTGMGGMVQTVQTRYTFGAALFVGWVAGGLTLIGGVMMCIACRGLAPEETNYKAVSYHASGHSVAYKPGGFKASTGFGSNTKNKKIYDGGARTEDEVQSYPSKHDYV

B1: Ab 416 (antibody, V domains shown)
VH: EFQLQQSGPELVKPGASVKISCKASVYSFTGYNMNWVKQSNGKSLEWIGVINPNYGNTNYNQRFKGKATLTVDQSSSTAYMQLNSLTSEDSAVYYCARSEDYYNIRGASWGQGTLVTVSA
VL: QIVLTQSPAIMSASPGQKVTITCSASSTINYMHWYQQKLGSSPKLWIYDTSKLAPGVPARFSGSGSGTSYSLTISSMEAEDAASYFCHQWSSYPPTFGSGTKLELK
EC50 (mouse CLDN18.2 (mouse)): 591 nM

B2: Ab 360 (antibody, V domains shown)
VH: VVQLQQSGPELVKPGASVKMSCKASGYTFTSYLMHWVRQKPGLGLDWIGYINPYNDGTNYNAKFIDKATLTSDKTSSTAYMELSSLTSEDSAIYYCTRGDYWGQGTSVTVSS
VL: DIVMTQSPSSLAVTAGEQVTMSCKSSQSLLNSGNQKNYLTWYQQKPGQPPKLLIYWASIRQSGVPDRFTGSGSGTDFTLTISSVQAEDLAVYYCLNDYGFPLTFGAGTKLELK
EC50 [1]: 1760 nM | EC50 (mouse CLDN18.2 (mouse)): 57.7 nM

B3: Ab 347 (antibody, V domains shown)
VH: EVQLQQSGPELVKPGASVKMSCKASGYTFTSYLIHWVKQKPGQGLEWIGYINPYNDATYYNEKFKAKATLTSDKSSSTAYMELSSLTSEDTAIYYCTRGDYWSQGTSVTVSS
VL: DIVMTQSPSSLTVTAGEKVTMSCKSSQSLLNSGNQKNYLTWYQQKPGQPPKLLIYWASTRQSGVPDRFTGSGSGTDFTLTISSVQAEDLTVYYCLNDYSFPLTFGAGTKLELK
EC50 [1]: 1230 nM | EC50 (mouse CLDN18.2 (mouse)): 1350 nM

B4: Ab 331 (antibody, V domains shown)
VH: EVQLQQSGPELVKPGASVRMSCKASGYTFTSYIMHWVKQKPGQGPEWMGYINPYNDGTNYNEKFKDKATLTSDKSSSTAYMDLSSLTSEDSAVYYCTRGDYWGQGTSVTVSS
VL: DIVMTQSPSSLTVTAGEKVTMSCKSSQSLLNSGNQKNYLTWYQQKPGQPPKLLFYWASTKKSGVPDRFTGSGSRTDFTLTISSVQAEDLAVYYCLNDYSFPLTFGAGTKLELK
EC50 [1]: 1680 nM | EC50 (mouse CLDN18.2 (mouse)): 810 nM

B5: Ab 301 (antibody, V domains shown)
VH: VVQLQQSGPELVKPGASVKMSCKASGYTFTSFLIHWVRQKPGLGLEWIGYINPYDYGINYNVKFMDKVTLTSDKTSSTAYMELSSLTSADSAIYYCTRGDYWGQGTSVIVSS
VL: DIVMTQSPSSLAVTTGEQVTMNCKSSQSLLNSGNQKNYLTWYQQKTGQSPKLLIYWASTRQSGVPDRFTGSGSGTDFTLTISSVQAEDLAVYYCLNDYGFPLTFGAGTKLELK
EC50 [1]: 675 nM | EC50 (mouse CLDN18.2 (mouse)): 1610 nM

B6: Ab 358 (antibody, V domains shown)
VH: VVQLVESGGDFVQPGGSRKLSCAVSGFTFSSFGMHWVRQAPEKGLEWVAYISSGTTNIYYADTVKGRFTVSRDNPKNSLFLHMTSLRSEDTAMYYCVRSGYYGNSLDYWGQGTPLTVSS
VL: DIVMTQSPSSLTVTAGEKVTMSCKSSQSLFNSGNQRNYLTWYQQKPGQPPKLLIYWASTRESGVPDRFTGSGSGTGFTLTISSVQAEDLAFYYCQNVYIYPLTFGLGTKLELR
EC50 [1]: 1520 nM | EC50 (mouse CLDN18.2 (mouse)): 40.6 nM

B7: Ab 409 (antibody, V domains shown)
VH: QVQLQQSGAELARPGASVKLSCKASGYTFTSYGISWVKQRTGQGLEWIGEISPRSGNTYYNEKFKGKATLTADKSSSTAYMELRSLTSEDSAVYFCATGVITTVIPTDWYFDVWGTGTTVTVSS
VL: DIQMTQTTSSLSASLGDRVTISCRASQDISNYLNWYQQKPDGTVKLLIYYTSRLHSGVPSRFSGSGSGTDYSLTISNLEPEDIATYYCQHYSKLPPTFGSGTKLEIK
EC50 (mouse CLDN18.2 (mouse)): 1040 nM

B8: Ab 307 (antibody, V domains shown)
VH: DVKLVESGGGLVKPGGSLKLSCAASGFTFSSYTMSWVRQTPEKRLEWVATIIIGGSYTYYPDSVKGRFTISRDNAKNTLYLQMSSLKSEDTAMYYCTRLVKGNAMDYWGQGTSVAVSS
VL: DIVMTQSPSSLTVTTGEKVTMSCKSSQSLLNSGNQKNYLSWYQQIPGQPPKLLFYWASTRESGVPDRFTGSGSGTDFTLTISNVQAEDLAVYYCQNDYSYPFTFGAGTKLELR
EC50 (mouse CLDN18.2 (mouse)): 68.8 nM

B9: Ab 432 (antibody, V domains shown)
VH: QIQLQQSGAELARPRASVKLSCKASGYTFTSDVISWVKQRPGQGLEWIGESYLRNGNTYYNENFKGKATLTADKSSSTAYMELRSLTSEDSAVYFCARSYYGNSFAYWGQGTLVTVSA
VL: DIVMTQSPSSLTVTAREKVTMNCKSTQSLLNSGNQKNYLTWYQQKPGQPPKLLIYWASTRESGVPDRFTGSGSGTDFTLTISSVQAEDLAVYYCQNAYYYPFTFGGGTKLEIK
EC50 (mouse CLDN18.2 (mouse)): 96.8 nM

— US20260104418A1
